{"source": "paper PMC2577619", "target": "HIV-1 BaL envelope glycoprotein gp120 (head of the virion Env spike) (HIV-1 BaL)", "test": "cryo-EM structure; cryoelectron tomography of vitrified AT-2-treated HIV-1 BaL virions in PBS; 300 kV, pixel 5.56 A; spike subvolumes (2,070 kept) aligned, classified into eight classes and averaged with missing-wedge compensation, no symmetry imposed; head and leg regions also aligned and classified separately"}
{"substance": "HIV-1 BaL envelope glycoprotein gp120 (head of the virion Env spike) (natural protein)", "values": [{"measurement": "stoichiometry N", "result": 3}]}
